Source: patent US20250084172A1 (23ANDME, published 2025)

B3: human ULBP6 displayed on M13 phage (ULBP6-HA-pIII) (other)
chain: RRDDPHSLCYDITVIPKFRPGPRWCAVQGQVDEKTFLHYDCGNKTVTPVSPLGKKLNVTMAWKAQNPVLREVVDILTEQLLDIQLENYTPKEPLTLQARMSCEQKAEGHSSGSWQFSIDGQTFLLFDSEKRMWTTVHPGARKMKEKWENDKDVAMSFHYISMGDCIGWLEDFLMGMDSTLEPSAGAPLAMSSGYPYDVPDYA
notes: also called ULBP6 phage; not shown: M13 minor coat protein pIII

How the values were obtained:
[1] = target: T1, human soluble ULBP6 haplotype 02 (hULBP6_02) (human, UniProt Q5VY80 26-218); assay: cell-based or functional assay
T1 chain: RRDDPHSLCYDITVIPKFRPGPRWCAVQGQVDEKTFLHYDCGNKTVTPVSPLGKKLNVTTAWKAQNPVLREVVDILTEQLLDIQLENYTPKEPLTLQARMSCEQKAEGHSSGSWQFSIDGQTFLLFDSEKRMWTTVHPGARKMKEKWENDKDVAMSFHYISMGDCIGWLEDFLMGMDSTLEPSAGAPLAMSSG

[2] = target: T1, human soluble ULBP6 haplotype 02 …; assay: Biacore binding to ULBP6_02 (SPR)
[3] = target: B3; assay: phage ELISA: plate coated with the antibody, ULBP6 phage titrated in 3-fold steps from 1.0 O.D./mL, HRP anti-M13 detection, O.D. 450
[4] = target: T2, cell surface ULBP6_01 on COV644 cells (human, UniProt Q5VY80 27-218); assay: flow cytometry; blocking of hNKG2D-mFc binding to COV644 cells, average of 2 replicates
T2 construct: whole, on cells; also called cell surface ULBP6 (COV644)
T2 chain: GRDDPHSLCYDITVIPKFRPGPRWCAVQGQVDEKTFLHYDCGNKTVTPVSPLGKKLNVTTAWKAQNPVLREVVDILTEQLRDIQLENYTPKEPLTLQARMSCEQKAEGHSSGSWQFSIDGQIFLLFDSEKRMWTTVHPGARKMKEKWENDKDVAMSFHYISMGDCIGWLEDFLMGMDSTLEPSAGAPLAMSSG

[5] = target: T3, cell surface ULBP6_02 on PANC02.13 cells (human, UniProt Q5VY80 26-218); assay: flow cytometry on PANC02.13 cells, anti-hFc-APC detection, average of 2 replicates
T3 construct: whole, on cells; also called cell surface ULBP6 (PANC02.13)
T3 chain: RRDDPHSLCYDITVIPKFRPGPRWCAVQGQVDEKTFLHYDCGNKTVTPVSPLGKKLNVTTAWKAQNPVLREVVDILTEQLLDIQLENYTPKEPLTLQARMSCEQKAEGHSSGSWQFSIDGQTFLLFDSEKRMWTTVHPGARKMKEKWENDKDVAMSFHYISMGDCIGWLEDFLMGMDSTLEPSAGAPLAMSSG

[6] = target: T4, human soluble ULBP2 (hULBP2) (human, UniProt Q9BZM5 26-216); assay: SPR (BIACORE 8K, 37 C); antibody captured on Protein A, soluble ULBP injected;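 further: ligand injected as threefold dilution series in HBS-P (highest 10 or 50 nM), reference-cell and buffer-subtracted sensorgrams fitted with a 1:1 Langmuir model for on and off rates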
T4 construct: also called sULBP2
T4 sequence: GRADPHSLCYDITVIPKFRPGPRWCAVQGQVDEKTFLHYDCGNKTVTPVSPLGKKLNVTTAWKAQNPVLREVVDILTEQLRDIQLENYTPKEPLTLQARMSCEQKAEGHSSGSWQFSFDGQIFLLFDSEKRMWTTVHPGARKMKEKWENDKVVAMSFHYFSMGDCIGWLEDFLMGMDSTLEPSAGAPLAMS

[7] = target: T5, human soluble ULBP6 haplotype 01 (hULBP6_01) (human, UniProt Q5VY80 27-218, limits assumed); assay: as above
T5 construct: also called sULBP6_01
T5 chain: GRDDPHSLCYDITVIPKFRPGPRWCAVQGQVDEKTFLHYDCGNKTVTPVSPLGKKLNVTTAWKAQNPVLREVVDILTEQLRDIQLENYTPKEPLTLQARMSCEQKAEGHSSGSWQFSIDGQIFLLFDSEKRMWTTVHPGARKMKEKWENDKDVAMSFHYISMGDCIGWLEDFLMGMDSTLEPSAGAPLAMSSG

[8] = target: T6, cynomolgus soluble ULBP2/6 (cULBP2/6) (cynomolgus, UniProt Q5VY80 28-217 (human entry), limits assumed); assay: as above
T6 construct: also called cyno ULBP6; Cyno-cULBP2/6
T6 chain: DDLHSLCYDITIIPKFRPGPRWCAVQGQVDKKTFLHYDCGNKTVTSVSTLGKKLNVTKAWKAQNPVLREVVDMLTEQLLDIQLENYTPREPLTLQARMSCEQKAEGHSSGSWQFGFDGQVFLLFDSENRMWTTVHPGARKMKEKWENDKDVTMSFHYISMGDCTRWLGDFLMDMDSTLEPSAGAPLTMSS

[9] = target: T7, cynomolgus soluble ULBP5 (cULBP5) (cynomolgus); assay: as above
T7 construct: also called Cyno-cULBP5
T7 chain: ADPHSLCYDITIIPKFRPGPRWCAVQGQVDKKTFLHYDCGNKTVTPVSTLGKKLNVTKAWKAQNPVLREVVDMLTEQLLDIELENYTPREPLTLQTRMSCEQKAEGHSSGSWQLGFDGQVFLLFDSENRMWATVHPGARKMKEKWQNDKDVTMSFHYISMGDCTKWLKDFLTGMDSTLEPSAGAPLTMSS

[10] = target: T1, human soluble ULBP6 haplotype 02 …; assay: as above
[11] = target: T2, cell surface ULBP6_01 on COV644 cells; assay: flow cytometry on COV644 cells, anti-hFc-APC detection, average of 2 replicates
[12] = target: T1, human soluble ULBP6 haplotype 02 …; assay: cell-based or functional assay
[13] = target: hNKG2D-Fc (human NKG2D 78-216 with C-terminal long huFc-Flag tag) (human); assay: phage ELISA: plate coated with the ULBP6 receptor NKG2D (PUR4928, construct not stated), phage titrated in 3-fold steps from 1.0 O.D./mL, HRP anti-M13 detection, O.D. 450
[14] = target: anti-HA antibody; assay: phage ELISA: plate coated with anti-HA antibody, phage titrated in 3-fold steps from 1.0 O.D./mL, HRP anti-M13 detection, O.D. 450

Chain of hNKG2D-Fc (human NKG2D 78-216 with C-terminal long huFc-Flag tag) (human) (chain, as listed by the source limits assumed): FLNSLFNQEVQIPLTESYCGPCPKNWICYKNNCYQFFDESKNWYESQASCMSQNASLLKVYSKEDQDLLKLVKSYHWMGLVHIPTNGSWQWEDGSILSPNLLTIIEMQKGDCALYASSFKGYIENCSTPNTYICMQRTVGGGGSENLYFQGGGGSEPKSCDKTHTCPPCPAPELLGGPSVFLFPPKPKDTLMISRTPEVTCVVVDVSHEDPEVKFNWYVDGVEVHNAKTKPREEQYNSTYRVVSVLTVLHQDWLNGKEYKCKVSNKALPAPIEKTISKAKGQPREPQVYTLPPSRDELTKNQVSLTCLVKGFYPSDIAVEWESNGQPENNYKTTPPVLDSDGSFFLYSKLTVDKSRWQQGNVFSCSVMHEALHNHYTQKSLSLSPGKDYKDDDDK

B1: humanized 8E8 (h8E8), Fc version not stated (antibody, V domains shown)
VH: QVQLVQSGAEVKKPGSSVKVSCKASGYTFTTYGITWVRQAPGQGLEWIGEIYPGTATSYSNERFKGRATLTADRSTSTAYMELSSLRSEDTAVYFCARRGTYGTYEWYFDVWGRGTLVTVSS
VL: DIQMTQSPSSLSASVGDRVTITCRASENIYSHLAWYQQKPGKSPKLLVYAATNLADGVPSRFSGSGSGTDYTLTISSLQPEDFATYYCQHFWGTPWTFGGGTKVEIK
notes: also called hu8E8; PUR3924
[1]
  IC50 (read off the curve); fall of NKG2D MFI on primed PBMCs with 50 nM sULBP6_02: ~3 nM
[2]
  Kd: 1.56 nM

B2: humanized 7B3 (h7B3), Fc version not stated (antibody, V domains shown)
VH: EVQLVESGGGLVQPGGSLRLSCAASGFTFSTYGFHWVRQAPGKGLEWVAYISSNSGTIDYADTVKGRFTISRDNAKNSLYLQMNSLRAEDTAVYYCARQGYGFDNWGQGTTVTVSS
VL: DIQLTQSPSSLSASVGDRVTITCSASSRVSYMNWYQQKPGKSPKIWVYGISNLASGVPSRFSGSGSGTDFTFTISSLQPEDIATYYCQQRSSHPLTFGGGTKVEIK
notes: Recombinant humanized antibody, hIgG1 backbone with kappa light chain; also called hu7B3; PUR3922
[1]
  EC50 (read off the curve); NKG2D MFI on primed PBMCs with 50 nM sULBP6_02: ~20 nM
[3]
  EC50 (read off the curve): ~0.006 O.D. (phage)
[4]
  IC50: 0.17 nM
[5]
  EC50: 1.97 nM
[6]
  Kd: 0.673 nM
  koff: 0.000507 s⁻¹
  kon: 753000 M⁻¹ s⁻¹
[7]
  Kd: 0.263 nM
  koff: 0.000382 s⁻¹
  kon: 1.45e+06 M⁻¹ s⁻¹
[8]
  Kd: 0.377 nM
  koff: 0.000542 s⁻¹
  kon: 1.44e+06 M⁻¹ s⁻¹
[9]
  Kd: 6.13 nM
  koff: 0.0034 s⁻¹
  kon: 554000 M⁻¹ s⁻¹
[10]
  Kd: 0.255 nM
  koff: 0.000379 s⁻¹
  kon: 1.48e+06 M⁻¹ s⁻¹
[11]
  EC50: 1.93 nM
[12]
  EC50 (read off the curve); IFNg secretion of primed PBMCs on plate-bound MICA with 50 nM sULBP6_02: ~1 nM

## B3
[13]
  EC50 (read off the curve): ~0.01 O.D. (phage)
[14]
  EC50 (read off the curve): ~0.01 O.D. (phage)
